Assay: soluble on expression in E. coli; label from the status in PepcDB or PDB records

| Sequence | soluble on expression in E. coli |
| --- | --- |
| SASSIICQEHCQISGQAKIDILLVGDVTVGYLADTVQKLFANIAEVTITISDTKEAAALLDDCIFNMVLLKVPSSLSAEELEAIKLIRFGKKKNTHSLFVFIIPENFKGCISGHGMDIALTEPLTMEKMSNVVKYWTTCPSNTVKTENATGPEELGLPLQRSYSEHLGYFPTDLFACSESLRNGNGLELNASLSEFEKNKKISLLHSSKEKLRRLYRKHSSFCFW | soluble |
| MSLLHERINFNPKVDVEVKLPERLEEGKITEVNVVVRNRGSKGILEVKIEGEDLIGEAKRVKLDSGEKLVKLSVKPLNKGDKVLKVKALFEDELNLYYSEVYEAEFSIQVLPSVDSIREAAREEVSIRMREALKKGKIGVESTELYGLREYLPGDDVRRIDWKATTRLRKLIVKEFMRESEGDVYIVLDATREMRKRIRRSKIDYASSLVLYIATILIRSNKRVGLILFSEDEFKVVKPEKGSEQLERIRETLRFKPLKGLTSFKGEVGRLKTWDFLRKLFPRKRRGVEEALLSIRNPSYVILITDLMSNTPRLYSAVSMVKKKHKVIILSPNPVLFYSGELDEETLRFLYEKYRERERILRKFNSLVPTVDLGPSDYGREVLEVLEGEGHHHHHH | not soluble |
| MGSDKIHHHHHHMARETQCNRQTDCAQCPKATEGILVHRKFPKGQHFPPDKCTQNCILFILQGELLVNSEEYPGTTLREGQFILQSIGSKLELLALTDVNYVVYWFNEPPLICEQRYHEILQQSEAPLTYTPLVMTQRITNFMKDICDYLDEQMPCGAFIDLKCQELMYLIICYYPIPQLSKFFYPISSYTESFQYFVMQNYEKVKNVEEFAHLGGYTTTTFRRLFKNMYGVPVYEWILSKKREGILEDLQHTKQRITEISNRYGFDSLSHFAHFCKASFGDSPRALRTRAARGEKITALKTE | not soluble |
| MKRFFALVHKDEDSAFGVQFPDFEGLFSAADEEENLIINATEALQLYCEDMDTVPVPLKFEEVIQQKAVKKALSEGAFLIQVPFIENDSEVVRTNISIERGLLRAIDNCAQERGLTRSAFLATAARHELNI | not soluble |
| MAKTLYEKLFDSHIVYEAEGETPILYINRHLIHEVTSPQAFDGLRVANRQVRQVNKTFGTMDHSISTQVRDVNKLEGQAKIQVLELDKNTKATGIKLFDITTKEQGIVHVMGPEQGLTLPGMTIVCGDSHTATHGAFGALAFGIGTSEVEHVLATQTLKQARAKSMKIEVRGKVASGITAKDIILAIIGKTTMAGGTGHVVEFCGEAIQDLSMEGRMTVCNMAIEMGAKAGLIAPDETTFAYLKDRPHAPKGKDWEDAVAYWKTLKSDDDAQFDTVVTLEAKDIAPQVTWGTNPGQVISVNETIPNPQEMADPVQRASAEKALHYIGLEAGTNLKDIKVDQVFIGSCTNSRIEDLRAAAAVMKGRKKADNVKRILVVPGSGLVKEQAEKEGLDKIFIAAGAEWRNPGCSMCLGMNDDRLGEWERCASTSNRNFEGRQGRNGRTHLVSPAMAAAAGVFGKFVDIRDVTLN | not soluble |
| MGSDKIHHHHHHMSIAPFLEAAGWAEATATPLAGDASSRRYTRLSRGAETAVLMQAPVATKADHASFDAFRKIGAHLRGQNLSAPKEYAADPTNGLILMEDLGDQTLARLLKDDAQTAQIAYNATANLLPHLKVHAPPHLAAPDARAMAQMVALTFDQLPDSAILRDTLLEALAEALTTHAPGAPTLSLRDVHAENLLWLPDRDGPARVGLLDFQDALLLPEGYDLASLLDDPRREVPEVWRADLIAAHSAPTRIAVLSLQRNLRILGIFRRLSTTLGKPAYGAFLPRTRTLIARAASDLPPMLAPVTELLDRTAHWTAP | not soluble |
| MDVTALCHKIFLHIHGLISADRYSLFLVCEDSSKDKFLISRLFDVAEGSTLEEASNNCIRLEWNKGIVGHVAAFGEPLNIKDAYEDPRFNAEVDQITGYKTQSILCMPIKNHREEVVGVAQAINKKSGNGGTFTEKDEKDFAEYLAFCGEVLHNAQLYETSLLENKRNLEHHHHHH | soluble |
| MLHILCQGTPFEIGYEHGSAAKAVIARSIDFAVDLIRGKTKKTDEELKQVLSQLGRVIEERWPKYYEEIRGIAKGAERDVSEIVMLNTRTEFAYGLKAARDGATTAYCQLPNGALQGQNWDFFSATKENLIRLTIRQAGLPTIKFITEAGIIGKVGFNSAGVAVNYNALHLQGLRPTGVPSHIALRIALESTSPSQAYDRIVEQGGMAASAFIMVGNGHEAFGLEFSPTSIRKQVLDANGRMVHTNHCLLQHGKNEKELDPLPDSWNRHQRMEFLLDGFDGTKQAFAQLWADEDNYPFSICRAYEEGKSRGATLFNIIYDHARREATVRLGRPTNPDEMFVMRFDEEDERSALNARL | soluble |
| HHHHHHSSGLVPRGSGMKETAAAKFERQHMDSPDLGTDDDDKASSSANECISVKGRIYSILKQIGSGGSSKVFQVLNEKKQIYAIKYVNLEEADNQTLDSYRNEIAYLNKLQQHSDKIIRLYDYEITDQYIYMVMECGNIDLNSWLKKKKSIDPWERKSYWKNMLEAVHTIHQHGIVHSDLKPANFLIVDGMLKLIDFGIANQMQPDTTSVVKDSQVGAVNYMPPEAIKDMSSSRENGKSKSKISPKSDVWSLGCILYYMTYGKTPFQQIINQISKLHAIIDPNHEIEFPDIPEKDLQDVLKCCLKRDPKQRISIPELLAHPYVQIQTHPVNQMAKGTTEEMKYVLGQLVGLNSPNSILKAAKTLYEHYSGGESHNSSSSKTFEKKRGKK | soluble |
| MAGDPMGSGESKANTAETPEVLDVKLTGPEKVNPGESAAYEAAVSYGDEAVTDADEVEFEVWKEGEKDASQMFKVKQEKGVYRLETTFKEDGVYTVQSHVTAKKQHSMPTLKVQVGDADAASNQSEEEHSHHHLEHHHHHH | soluble |
| MDFQNFVATLESFKDLKSGISGSRIKKLTTYALDHIDIESKIISLIIDYSRLCPDSHKLGSLYIIDSIGRAYLDETRSNSNSSSNKPGTCAHAINTLGEVIQELLSDAIAKSNQDHKEKIRMLLDIWDRSGLFQKSYLNAIRSKCFAAALEHHHHHH | soluble |
| MILGIDIGGANTKITELHENGEFKVHHLYFPMWKNNDKLAEVLKTYSNDVSHVALVTTAELADSYETKKEGVDNILNAAESAFGSNISVFDSNGNFISLESAKTNNMKVSASNWCGTAKWVSKNIEENCILVDMGSTTTDIIPIVEGKVVAEKTDLERLMNHELLYVGTLRTPISHLGNTISFKGVDTNVSSEYFAITADISVVLEKVTTEEYTCDTPDGKGTDKRSSLVRISKVLCSDLDQISEIDAENIAKNYYELWKELILENVENVAEKYGSKKVVITGLGENILKDALADFEVISVAERYGKDVSLATPSFAVAELLKNELLEHHHHHH | soluble |
| MGSDKIHHHHHHMTHPLLAIDNLSIAFRQQGETQTVVHNLSLEVAVGETLALVGESGSGKSISALSVLRLLPTPPASYPSGDIRFHGQSLLHADEATLRGVRGNRIAMIFQEPMVSLNPLHTLEKQLYEVLSLHRGMRKQAARGEILDCLERVGIRQAPRRLADYPHQLSGGERQRVMIAMALLTRPELLIADEPTTALDVSVQAQILQLLRELKQELNMGLLFITHNLSIVRQLADRVAVMQNGRCVEHNDCRALFSAPAHPYTQRLLDSEPDGEPVPLAADAPVLLQADDLKVAFPVRKGILRRVVDHHRVVNSLSFQLRAGETLGLVGESGSGKSTTGLALLRLIPSGGKITFAGQPIQGRNRRQLLPLRRQMQVVFQDPNSSLNPRLTAQQIIEEGLRVHQPTLTAAEREQAVILAMQEVGLDPASRQRYPAAFSGGQRQRIAIARALIVKPQLIVLDEPTSSLDKTVQAQILNLLKALQRKHQLAYIFISHDLGVVRALCHQVMVLRQGEVVEQGECKSVFSAPRHEYTRQLLALS | not soluble |
| MRLIEQAIEKIESGQVTEGLTALEEAAKTANHEMKYTVAETYYELGHLDKAQAIIDELLMLYPDEGGLYTFAAEILIDLNKEDEAIEMLNEIKEQDPAFLQAQLLLADLYQLQSLDEVAEQKLLKAYEVAPDEPIISFGLGEFYLERGDYIKSIPHLKRAKHGGLTNDQVNVSLKLAEAYSGSGQFEEALPHYDEGLKQKLDPHGLFGYGYTAYLLGDYVLAIEQFQALKALDPDFYDPIPVFGEGFRRGKSFRGSNGCFKRGDDRGLEHHHHHH | soluble |
| MGSDKIHHHHHHVKIILRKIRTLVTHPGFRANPIAVLGRCAALLGRVALGRPFVFSLTPAGERLRVDANLRYTTVTTFVMRDHLEPELHYLAHLLAPGDTFIDIGANVGVYSLRAATLVGAAGRVIAVEPGRDALTALRANLALNPGRTITVVAAALSDHIGTATLYHVGNGYDPQAFSLLSDETAKDAETVPLTTLDAVCADLAIDRLDCLKMDAEGVEPMVLAGGRATLERFHPAVILEMNTAILERRGSPTDQAWTFLAGLGYGFHRILGGRPVRLTAPPDDFCNVIATHPANEKIG | not soluble |
| MEQELISKKELLELTGISYGQLYRWKRKKLIPEEWFIRKSTFTGQETFFPKEKILARIEKIKELKDELSLDELAGMFAPDPAAVVLTKEEVIKRHIVSNVALQWLSDQLGDRQDVSFGQLLSLYIVDRLLRSGEINIEEGKNIWMMFESHYPKLQGKSCELVVLRKMGVTVCLLVEEAAGLYVEEGAKLVARLHVPTYIEELKLTISEG | not soluble |
| MASATLPRFDLMGWDKKDIADPYPVYRRYREAAPVHRTASGPGKPDTYYVFTYDDVVRVLSNRRLGRNARVASGDTDTAPVPIPTEHRALRTVVENWLVFLDPPHHTELRSLLTTEFSPSIVTGLRPRIAELASALLDRLRAQRRPDLVEGFAAPLPILVISALLGIPEEDHTWLRANAVALQEASTTRARDGRGYARAEAASQEFTRYFRREVDRRGGDDRDDLLTLLVRARDTGSPLSVDGIVGTCVHLLTAGHETTTNFLAKAVLTLRAHRDVLDELRTTPESTPAAVEELMRYDPPVQAVTRWAYEDIRLGDHDIPRGSRVVALLGSANRDPARFPDPDVLDVHRAAERQVGFGLGIHYCLGATLARAEAEIGLRALLDGIPALGRGAHEVEYADDMVFHGPTRLLLDLPDAALEHHHHHH | soluble |
| MAHHHHHHMKFIPLDSFSALNSLLQGVEAQGCCITMRLEAYTCRHTKEERQIANSIACYQNNVQLTPPISPLPTIGAYAGCTQEALPPLVLGGSAENVAASYSLVSPNEIDDRLVYFVAALNTVYESDGYDFSVLRENDFVRYTEPQFRTEVSSTLQSLPEQCRPAVQRFWPTIEEVVENAESGCEYYEFRCPSCNPLADTTVYARHYFVYNRRKKVLVLLVEYGESNPYRGDDGLPHAGDPTSAWDAESPTYASTPDLGEEGEAYDGGKNRQFYGYY | soluble |
| MGHHHHHHSHMAVWIQAQQLQGEALHQMQALYGQHFPIEVRHYLSQWIESQAWDSVDLDNPQENIKATQLLEGLVQELQKKAEHQVGEDGFLLKIKLGHYATQLQNTYDRCPMELVRCIRHILYNEQRLVREANNGSSP | not soluble |
| MGSDKIHHHHHHMIKYIALASVVLLVGCSSTAKKPIADDPFYAPVYPDTVPTQVAATGSIYLDSQASSLYSDIRAHRVGDIITVTLKESTQASKSANNEIKKGSDLSVEPVYAGGKNISISGVPIDLGYSDSMNTKRESDADQSNSLDGSISANIIQVLSNGNLVIRGEKWISINNGDEFIRVTGMIRSEDINPDNTIDSTRVANARIQYSGTGTFADSQKVGWLSSFFMSDWWPF | not soluble |
| MAHHHHHHMLRLTQAVLRVQSHQKKRAQHPNAGTRFGRVYNRGFVRYGFGGFGMSVYSSKKDRTFKVMPVPPPPPATTAVEQRDDFADNRGLSATTRTLSPTFRMFALEDGGVLVSHPSHAQIMRWNQRVHTEEGKAANSTVMDEYVNSRIQAIIADNTIENTSLSQWRKAHMWNVIKSHGKLQRRWGTPDFVMGARSTLYNN | not soluble |

— the DeepSol protein solubility set
